Measurements taken from paper PMC5645249.

B1: Synechococcus sp. PCC 7942 NR (ferredoxin-dependent nitrate reductase) (Synechococcus elongatus PCC 7942 = FACHB-805; K215R) (protein)
chain: MIDTAKTLCPYCGVGCGLEAVPPAQPGRATVRDREGTPIWQIRGDRQHPSSQGMVCVKGATVAESVSKSRLKYPMFRASLDDPFTEISWDEALDRLCDRIQQTQADYGKDGICFYGSGQFQTEDYYIAQKLVKGCLGTNNFDTNSRLCMSSAVSAYSLCLGSDGPPACYEDLDLADCLLIVGSNTAECHPILFNRYRKRHRQGGTNLIVVDPRCTPTAEVADLHLALKPGSDVALLNGLGWLLYQMGYVKKDFIANQTEGFEDWLAIIEDYPPQRTAELTGLAVAELVRAADLIASAQRWLSLWSMGVNQSIQGTAKATSLINLHLLTRQIGLPGCGPFSLTGQPNAMGGRETGGLAHLLPGYRKVIDPQHRADVETIWGLPMGSISPQPGRTAWQMIEGLEQGAVGFLWVAATNPAVSLPDVKRAQAALKRSPFTVLQDAYHPTETTTYAHLLLPAAQWSEKTGTMTNSERRVTLCQAFRQPPGEARADWQIFAEVGRRLGFAFDYTDAAAVFAEYVQVTAGRLCDLSGLSHELLAQAGPQQWPFPAGAEPTTESKRLYTKHHFAYADGRARFQPFHHLGVAEPPDDRYPLVLTVGRLYGHWHTQTRTGRIDKINKLHPSAFVEIHPRDADRYNISEGQAVVIRSRRGEGCFPAKVTTAISPGVLFVPMHWGALWGDRTEANALTHPAACPISGEPELKACAVQIEAASSTFTI
B2: Synechococcus sp. PCC 7942 NR (ferredoxin-dependent nitrate reductase) (Synechococcus elongatus PCC 7942 = FACHB-805; E233Q) (protein)
chain: MIDTAKTLCPYCGVGCGLEAVPPAQPGRATVRDREGTPIWQIRGDRQHPSSQGMVCVKGATVAESVSKSRLKYPMFRASLDDPFTEISWDEALDRLCDRIQQTQADYGKDGICFYGSGQFQTEDYYIAQKLVKGCLGTNNFDTNSRLCMSSAVSAYSLCLGSDGPPACYEDLDLADCLLIVGSNTAECHPILFNRYRKRHKQGGTNLIVVDPRCTPTAQVADLHLALKPGSDVALLNGLGWLLYQMGYVKKDFIANQTEGFEDWLAIIEDYPPQRTAELTGLAVAELVRAADLIASAQRWLSLWSMGVNQSIQGTAKATSLINLHLLTRQIGLPGCGPFSLTGQPNAMGGRETGGLAHLLPGYRKVIDPQHRADVETIWGLPMGSISPQPGRTAWQMIEGLEQGAVGFLWVAATNPAVSLPDVKRAQAALKRSPFTVLQDAYHPTETTTYAHLLLPAAQWSEKTGTMTNSERRVTLCQAFRQPPGEARADWQIFAEVGRRLGFAFDYTDAAAVFAEYVQVTAGRLCDLSGLSHELLAQAGPQQWPFPAGAEPTTESKRLYTKHHFAYADGRARFQPFHHLGVAEPPDDRYPLVLTVGRLYGHWHTQTRTGRIDKINKLHPSAFVEIHPRDADRYNISEGQAVVIRSRRGEGCFPAKVTTAISPGVLFVPMHWGALWGDRTEANALTHPAACPISGEPELKACAVQIEAASSTFTI
B3: Synechococcus sp. PCC 7942 NR (ferredoxin-dependent nitrate reductase) (Synechococcus elongatus PCC 7942 = FACHB-805; R211Q) (protein)
chain: MIDTAKTLCPYCGVGCGLEAVPPAQPGRATVRDREGTPIWQIRGDRQHPSSQGMVCVKGATVAESVSKSRLKYPMFRASLDDPFTEISWDEALDRLCDRIQQTQADYGKDGICFYGSGQFQTEDYYIAQKLVKGCLGTNNFDTNSRLCMSSAVSAYSLCLGSDGPPACYEDLDLADCLLIVGSNTAECHPILFNRYQKRHKQGGTNLIVVDPRCTPTAEVADLHLALKPGSDVALLNGLGWLLYQMGYVKKDFIANQTEGFEDWLAIIEDYPPQRTAELTGLAVAELVRAADLIASAQRWLSLWSMGVNQSIQGTAKATSLINLHLLTRQIGLPGCGPFSLTGQPNAMGGRETGGLAHLLPGYRKVIDPQHRADVETIWGLPMGSISPQPGRTAWQMIEGLEQGAVGFLWVAATNPAVSLPDVKRAQAALKRSPFTVLQDAYHPTETTTYAHLLLPAAQWSEKTGTMTNSERRVTLCQAFRQPPGEARADWQIFAEVGRRLGFAFDYTDAAAVFAEYVQVTAGRLCDLSGLSHELLAQAGPQQWPFPAGAEPTTESKRLYTKHHFAYADGRARFQPFHHLGVAEPPDDRYPLVLTVGRLYGHWHTQTRTGRIDKINKLHPSAFVEIHPRDADRYNISEGQAVVIRSRRGEGCFPAKVTTAISPGVLFVPMHWGALWGDRTEANALTHPAACPISGEPELKACAVQIEAASSTFTI
B4: Synechococcus sp. PCC 7942 NR (ferredoxin-dependent nitrate reductase) (Synechococcus elongatus PCC 7942 = FACHB-805; K628R) (protein)
chain: MIDTAKTLCPYCGVGCGLEAVPPAQPGRATVRDREGTPIWQIRGDRQHPSSQGMVCVKGATVAESVSKSRLKYPMFRASLDDPFTEISWDEALDRLCDRIQQTQADYGKDGICFYGSGQFQTEDYYIAQKLVKGCLGTNNFDTNSRLCMSSAVSAYSLCLGSDGPPACYEDLDLADCLLIVGSNTAECHPILFNRYRKRHKQGGTNLIVVDPRCTPTAEVADLHLALKPGSDVALLNGLGWLLYQMGYVKKDFIANQTEGFEDWLAIIEDYPPQRTAELTGLAVAELVRAADLIASAQRWLSLWSMGVNQSIQGTAKATSLINLHLLTRQIGLPGCGPFSLTGQPNAMGGRETGGLAHLLPGYRKVIDPQHRADVETIWGLPMGSISPQPGRTAWQMIEGLEQGAVGFLWVAATNPAVSLPDVKRAQAALKRSPFTVLQDAYHPTETTTYAHLLLPAAQWSEKTGTMTNSERRVTLCQAFRQPPGEARADWQIFAEVGRRLGFAFDYTDAAAVFAEYVQVTAGRLCDLSGLSHELLAQAGPQQWPFPAGAEPTTESKRLYTKHHFAYADGRARFQPFHHLGVAEPPDDRYPLVLTVGRLYGHWHTQTRTGRIDRINKLHPSAFVEIHPRDADRYNISEGQAVVIRSRRGEGCFPAKVTTAISPGVLFVPMHWGALWGDRTEANALTHPAACPISGEPELKACAVQIEAASSTFTI
B5: Synechococcus sp. PCC 7942 NR (ferredoxin-dependent nitrate reductase) (Synechococcus elongatus PCC 7942 = FACHB-805; R60K) (protein)
chain: MIDTAKTLCPYCGVGCGLEAVPPAQPGRATVRDREGTPIWQIRGDKQHPSSQGMVCVKGATVAESVSKSRLKYPMFRASLDDPFTEISWDEALDRLCDRIQQTQADYGKDGICFYGSGQFQTEDYYIAQKLVKGCLGTNNFDTNSRLCMSSAVSAYSLCLGSDGPPACYEDLDLADCLLIVGSNTAECHPILFNRYRKRHKQGGTNLIVVDPRCTPTAEVADLHLALKPGSDVALLNGLGWLLYQMGYVKKDFIANQTEGFEDWLAIIEDYPPQRTAELTGLAVAELVRAADLIASAQRWLSLWSMGVNQSIQGTAKATSLINLHLLTRQIGLPGCGPFSLTGQPNAMGGRETGGLAHLLPGYRKVIDPQHRADVETIWGLPMGSISPQPGRTAWQMIEGLEQGAVGFLWVAATNPAVSLPDVKRAQAALKRSPFTVLQDAYHPTETTTYAHLLLPAAQWSEKTGTMTNSERRVTLCQAFRQPPGEARADWQIFAEVGRRLGFAFDYTDAAAVFAEYVQVTAGRLCDLSGLSHELLAQAGPQQWPFPAGAEPTTESKRLYTKHHFAYADGRARFQPFHHLGVAEPPDDRYPLVLTVGRLYGHWHTQTRTGRIDKINKLHPSAFVEIHPRDADRYNISEGQAVVIRSRRGEGCFPAKVTTAISPGVLFVPMHWGALWGDRTEANALTHPAACPISGEPELKACAVQIEAASSTFTI
B6: Synechococcus sp. PCC 7942 NR (ferredoxin-dependent nitrate reductase) (Synechococcus elongatus PCC 7942 = FACHB-805; R60Q) (protein)
chain: MIDTAKTLCPYCGVGCGLEAVPPAQPGRATVRDREGTPIWQIRGDQQHPSSQGMVCVKGATVAESVSKSRLKYPMFRASLDDPFTEISWDEALDRLCDRIQQTQADYGKDGICFYGSGQFQTEDYYIAQKLVKGCLGTNNFDTNSRLCMSSAVSAYSLCLGSDGPPACYEDLDLADCLLIVGSNTAECHPILFNRYRKRHKQGGTNLIVVDPRCTPTAEVADLHLALKPGSDVALLNGLGWLLYQMGYVKKDFIANQTEGFEDWLAIIEDYPPQRTAELTGLAVAELVRAADLIASAQRWLSLWSMGVNQSIQGTAKATSLINLHLLTRQIGLPGCGPFSLTGQPNAMGGRETGGLAHLLPGYRKVIDPQHRADVETIWGLPMGSISPQPGRTAWQMIEGLEQGAVGFLWVAATNPAVSLPDVKRAQAALKRSPFTVLQDAYHPTETTTYAHLLLPAAQWSEKTGTMTNSERRVTLCQAFRQPPGEARADWQIFAEVGRRLGFAFDYTDAAAVFAEYVQVTAGRLCDLSGLSHELLAQAGPQQWPFPAGAEPTTESKRLYTKHHFAYADGRARFQPFHHLGVAEPPDDRYPLVLTVGRLYGHWHTQTRTGRIDKINKLHPSAFVEIHPRDADRYNISEGQAVVIRSRRGEGCFPAKVTTAISPGVLFVPMHWGALWGDRTEANALTHPAACPISGEPELKACAVQIEAASSTFTI
B7: Synechococcus sp. PCC 7942 NR (ferredoxin-dependent nitrate reductase) (Synechococcus elongatus PCC 7942 = FACHB-805; R57K) (protein)
chain: MIDTAKTLCPYCGVGCGLEAVPPAQPGRATVRDREGTPIWQIKGDRQHPSSQGMVCVKGATVAESVSKSRLKYPMFRASLDDPFTEISWDEALDRLCDRIQQTQADYGKDGICFYGSGQFQTEDYYIAQKLVKGCLGTNNFDTNSRLCMSSAVSAYSLCLGSDGPPACYEDLDLADCLLIVGSNTAECHPILFNRYRKRHKQGGTNLIVVDPRCTPTAEVADLHLALKPGSDVALLNGLGWLLYQMGYVKKDFIANQTEGFEDWLAIIEDYPPQRTAELTGLAVAELVRAADLIASAQRWLSLWSMGVNQSIQGTAKATSLINLHLLTRQIGLPGCGPFSLTGQPNAMGGRETGGLAHLLPGYRKVIDPQHRADVETIWGLPMGSISPQPGRTAWQMIEGLEQGAVGFLWVAATNPAVSLPDVKRAQAALKRSPFTVLQDAYHPTETTTYAHLLLPAAQWSEKTGTMTNSERRVTLCQAFRQPPGEARADWQIFAEVGRRLGFAFDYTDAAAVFAEYVQVTAGRLCDLSGLSHELLAQAGPQQWPFPAGAEPTTESKRLYTKHHFAYADGRARFQPFHHLGVAEPPDDRYPLVLTVGRLYGHWHTQTRTGRIDKINKLHPSAFVEIHPRDADRYNISEGQAVVIRSRRGEGCFPAKVTTAISPGVLFVPMHWGALWGDRTEANALTHPAACPISGEPELKACAVQIEAASSTFTI

The proteins below were run on O=[N+]([O-])O (assay: nitrate reduction with reduced Fd, Michaelis-Menten fit). Conditions: saturating reduced Synechocystis sp. PCC 6803 ferredoxin as electron donor.
Type: biochemical, Synechococcus elongatus
B1 showed a Km of 9.6 ± 1.0 µM.
B2 gave a Km of 4.5 ± 0.4 µM.
With B3 the Km was 7.0 ± 0.7 µM.
For B4, the Km was 4.2 ± 0.5 µM.
For B5, the Km was 6.6 ± 1.0 µM.
Protein B6 has a Km of 55 ± 20 µM.
B7 showed a Km of 8.1 ± 0.7 µM.
